# Reference: patent US20130040837, “APTAMER CELL COMPOSITIONS” (BRIGHAM AND WOMEN'S HOSPITAL, INC., published 2013)
# T1: L-selectin (UniProt P14151 P14151:39-332)
# T1 sequence: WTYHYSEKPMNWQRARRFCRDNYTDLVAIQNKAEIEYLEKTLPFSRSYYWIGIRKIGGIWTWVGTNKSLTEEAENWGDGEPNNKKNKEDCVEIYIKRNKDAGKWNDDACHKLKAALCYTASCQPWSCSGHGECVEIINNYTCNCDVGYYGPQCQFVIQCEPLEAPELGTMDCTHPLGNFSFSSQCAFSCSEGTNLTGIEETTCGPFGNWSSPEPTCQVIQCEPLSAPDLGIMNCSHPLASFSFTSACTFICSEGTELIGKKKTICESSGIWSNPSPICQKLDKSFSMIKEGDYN
# B1: PDGF FRET sensor 5 (structured_DNA)
# DNA 1: AAGGCTACGGCACGTAGAGCATCACCATGATCCTGTGTGGTCTGTGTCG
# DNA 2: CGACACAGACCACA
# B2: L-selectin aptamer (ssDNA)
# DNA: TAGCCAAGGTAACCAGTACAAGGTGCTAAACGTAATGGCTTCGGCTTAC
# modifications: 3' inverted T
# B3: PDGF quench sensor 2 (structured_DNA)
# DNA 1: AAGGCTACGGCACGTAGAGCATCACCATGATCCTGTGTGGTCTATGTCGTCGTTCG
# DNA 2: CGAACGACGACATAGACCACA
# B4: scrambled sequence control DNA (ssDNA)
# DNA: GATGTAGGGACAGTCAAATGGAGTGGTTCAACCGCCCATCTTCAACAAT
# B5: P-selectin aptamer (ssRNA)
# RNA: CUCAACGAGCCAGGAACAUCGACGUCAGCAAACGCGAG
# modifications: 2'-F on C and U
# Tests used:
# [1] = molecular target: T2, PDGF-BB (platelet-derived growth factor) (UniProt P01127 P01127:82-190); assay: Cy3 quenched and Cy5 enhanced with 10 nM PDGF; solution in PBS and on MSCs in PBS, PBS with Ca/Mg and medium; conditions: chain copies: 2 (inferred); label: 5'-Cy5; complementary strand 5'-biotin, internal Cy3
# T2 sequence (P01127 82-190, one chain of several): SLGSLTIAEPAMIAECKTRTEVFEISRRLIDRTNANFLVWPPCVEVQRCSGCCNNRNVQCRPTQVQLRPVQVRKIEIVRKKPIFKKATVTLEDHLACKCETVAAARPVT
# P-selectin = P-selectin (UniProt P16109 P16109:42-771); assay: specificity control, static adhesion normalised to L-Aptamer-MSC on L-selectin; conditions: tags: P-selectin-Fc, coated on surface; chain copies: 2; label: 5'-biotin
# Chain of P-selectin (P16109 42-771, one chain of several): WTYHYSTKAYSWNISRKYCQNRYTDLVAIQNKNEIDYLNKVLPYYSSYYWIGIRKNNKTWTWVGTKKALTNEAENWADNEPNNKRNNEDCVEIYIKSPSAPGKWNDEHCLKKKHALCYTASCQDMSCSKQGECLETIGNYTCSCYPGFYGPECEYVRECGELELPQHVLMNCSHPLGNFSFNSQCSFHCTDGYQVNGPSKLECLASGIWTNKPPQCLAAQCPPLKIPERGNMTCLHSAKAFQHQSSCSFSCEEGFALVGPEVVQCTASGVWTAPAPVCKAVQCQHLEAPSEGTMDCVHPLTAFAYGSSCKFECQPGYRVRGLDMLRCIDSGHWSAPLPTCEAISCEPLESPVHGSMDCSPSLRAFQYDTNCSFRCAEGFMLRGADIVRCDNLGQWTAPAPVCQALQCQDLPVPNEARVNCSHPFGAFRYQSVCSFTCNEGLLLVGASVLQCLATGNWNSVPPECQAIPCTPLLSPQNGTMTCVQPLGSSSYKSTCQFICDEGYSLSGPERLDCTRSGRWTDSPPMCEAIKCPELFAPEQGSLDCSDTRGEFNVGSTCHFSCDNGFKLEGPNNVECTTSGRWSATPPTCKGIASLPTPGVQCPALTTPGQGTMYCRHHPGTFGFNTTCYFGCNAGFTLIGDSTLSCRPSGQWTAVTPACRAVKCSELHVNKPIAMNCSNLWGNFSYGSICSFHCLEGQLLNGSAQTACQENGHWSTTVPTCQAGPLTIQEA
# [2] = molecular target: T2, PDGF-BB (platelet-derived growth factor); assay: fluorescence quenching by flow cytometry on beads and MSCs, 10 nM PDGF; detection range several hundred pM to low nM on cells in PBS; best in PBS, then PBS with 0.9 mM CaCl2 and 0.5 mM MgCl2, then medium; conditions: chain copies: 2 (inferred); label: 5'-FAM; complementary strand 5'-biotin, 3'-dabcyl
# Experimental: FIGS. 11C-11D are bar graphs depicting the performance of sensors 1 and 2 immobilized on streptavidin beads for detection of PDGF in PBS (11C) and PBS with 0.9 mM CaCl₂ and 0.5 mM MgCl₂ (11D) were studied by flow cytometry. Upon adding PDGF (10 nM), the FAM green signal is quenched. Sensor 2 functions better than sensor 1 in PBS with and without Ca/Mg.
# A PDGF aptamer sensor was synthesized with FAM at the 5′ end of the aptamer and a quencher, dabcyl, at the 3′ end of the complementary strand, with a biotin molecule attached at the other end (FIG. 11A). Upon binding to the target PDGF, the aptamer undergoes a conformational change which brings FAM and dabcyl closer to each other and the fluorescence of FAM is quenched. One base pair C-G of the aptamer sensor was eliminated by changing a C base to A base (FIG. 11B). Therefore, sensor 2 has less nonspecific folding and better performance in the presence of divalent metal ions than sensor 1. Sensor 1 and 2 were immobilized on streptavidin beads, and their performances in PBS (FIG. 11C) and PBS with Ca/Mg (FIG. 11D) were studied by flow cytometry and microscopy (FIGS. 12A-12B). Upon adding PDGF (10 nM), the FAM green signal was quenched. Sensor 2 functioned better than sensor 1 in PBS with and without Ca/Mg.
# L-selectin [3] = molecular target: T1, L-selectin; assay: static adhesion normalised to L-Aptamer-MSC; PBS-MSC background 6.4±1.78; conditions: tags: coated on surface; label: 3'-biotin
# Experimental: After we confirmed the successful conjugation and the availability of aptamers on the MSC surface, we investigated the interactions between L-Aptamer-MSCs and L-selectin coated surfaces under both static and flow conditions. For the static adhesion assay, aptamer modified and unmodified MSCs were incubated with L-selectin coated surfaces for 10 minutes, and unbound cells were then removed through rinsing.
# L-selectin [4] = molecular target: T1, L-selectin; assay: specificity control, P-Aptamer-MSC on L-selectin; conditions: tags: coated on surface; label: 5'-biotin
binder,measurement,setting,value
B1,binding result,[1],binds
B2,binding result,P-selectin,no binding
B3,binding result,[2],binds
B4,binding result,L-selectin [3],no binding
B5,binding result,L-selectin [4],no binding
